Experimental data as given in the RNAGym collection of RNA variant scans (doi:10.1021/acssynbio.7b00057).

B1: Pistol ribozyme (parent)
chain: GGGUCGUUGUUCCAUAAUCGCGUGGAUAUGGCACGCAAGUUUCUACCGGGCACCGUAAAUGUCCGACUGGAGCCGUUCGGGCGGCUAUAAACAGACCUCAGGCCCGAAGCGUGGCGGCACCUGCCGCCGGUGGUAAAAAAGAUCGGAAGAGCACACGUCU

Variants of: B1
Test: aptazyme ON/OFF ratio, guanine; higher = stronger switching; co-transcriptional cleavage with and without guanine

Point of comparison: U7G U8C U10A U11A C13A, “aptazyme ON/OFF ratio” value 1.18. Against it:
- U7G U8C G9U U10A U11C C13U — the same, 1.18
- U7G U8C G9U U10A U11C C13A — higher, 1.42
- U7G U8C G9U U11A C12G C13U — higher, 1.22
- U7G U8C G9U U11A C12G C13A — lower, 1.1
- U7G U8C G9U U11A C12G C13G — lower, 1.13
- U7G U8C G9U U10C U11G C12G — lower, 1.1
- U7G U8C G9U U10C U11G C12U — higher, 2.47
- U7G U8C G9U U10C U11G C12A — higher, 1.75
- U7G U8C G9U U11A C13G — lower, 1.02
- U7G U8C G9U U11A C13A — higher, 1.22
- U7G U8C G9U U11A C13U — higher, 1.56
- U7G U8C G9U U10A U11G C12A C13A — lower, 1.1
- U7G U8C G9U U10A U11G C12A C13U — lower, 1.11
- U7G U8C G9U U10A U11G C12A C13G — lower, 1.09
- U7G U8C G9U U11G C12A C13U — higher, 1.38
- U7G U8C G9U U11G C12A C13A — lower, 1.11
- U7G U8C G9U U11G C12A C13G — higher, 1.35
- U7G U8C G9U U10G U11C C12G C13G — lower, 1.04
- U7G U8C G9U U10G U11C C12G C13A — higher, 1.26
- U7G U8C G9U U10G U11C C12G C13U — higher, 1.29
- U7G U8C U10A U11A C12U — higher, 1.43
- U7G U8C U10A U11A C12G — lower, 1.13
- U7G U8C U10A U11A C12A — lower, 1.05
- U7G U8C G9U U10A U11G C12G — higher, 1.19
- U7G U8C G9U U10A U11G C12U — higher, 1.33
- U7G U8C G9U U10A U11G C12A — lower, 1.12
- U7G U8C U10C — higher, 2.63
- U7G U8C U10A — higher, 1.33
- U7G U8C G9U U10A U11A C12G C13G — lower, 1.16
- U7G U8C G9U U10A U11A C12G C13U — higher, 1.19
- U7G U8C G9U U10A U11A C12G C13A — lower, 1.07
- U7G U8C G9U U11G C12G C13U — lower, 1.09
- U7G U8C G9U U11G C12G C13G — lower, 1.12
- U7G U8C G9U U11G C12G C13A — lower, 1.08
- U7G U8C G9U U11G C12U C13U — higher, 1.35
- U7G U8C G9U U11G C12U C13A — higher, 1.26
- U7G U8C G9U U11G C12U C13G — higher, 1.28
- U7G U8C U10A U11C C12G C13U — lower, 1.16
- U7G U8C U10A U11C C12G C13G — lower, 1.06
- U7G U8C U10A U11C C12G C13A — lower, 1.11
- U7G U8C G9U U10C C12G C13U — higher, 1.29
- U7G U8C G9U U10C C12G C13A — higher, 1.31
- U7G U8C G9U U10C C12G C13G — higher, 1.22
- U7G U8C G9U U10A C12U — higher, 2.85
- U7G U8C G9U U10A C12A — higher, 1.88
- U7G U8C G9U U10A C12G — higher, 1.77
- U7G U8C U10A U11A C13U — higher, 1.21
- U7G U8C U10A U11A C13G — the same, 1.18
- U7G U8C G9U U11A C12U C13A — higher, 1.46
- U7G U8C G9U U11A C12U C13G — lower, 1.17
- U7G U8C G9U U11A C12U C13U — higher, 1.41
- U7G U8C G9U U10G U11C C12A C13A — higher, 1.23
- U7G U8C G9U U10G U11C C12A C13G — higher, 1.45
- U7G U8C G9U U10G U11C C12A C13U — higher, 1.37
- U7G U8C G9U U11A C12A — higher, 2.91
- U7G U8C G9U U11A C12G — higher, 2.17
- U7G U8C G9U U11A C12U — higher, 2.56
- U7G U8C G9U U10A U11A C13U — higher, 1.79
- U7G U8C G9U U10A U11A C13A — higher, 1.3
- U7G U8C G9U U10A U11A C13G — lower, 1.08
- U7G U8C G9U C12G C13U — higher, 1.32
- U7G U8C G9U C12G C13A — the same, 1.18
- U7G U8C G9U C12G C13G — higher, 1.32
- U7G U8C G9U U10A U11G C12G C13A — lower, 1.13
- U7G U8C G9U U10A U11G C12G C13G — lower, 1.13
- U7G U8C G9U U10A U11G C12G C13U — lower, 1.1
- U7G U8C G9U U11C C13G — lower, 1.04
- U7G U8C G9U U11C C13U — higher, 1.3
- U7G U8C G9U U11C C13A — higher, 1.38
- U7G U8C G9C U11G C12U C13G — higher, 1.33
- U7G U8C G9C U11G C12U C13A — higher, 1.3
- U7G U8C G9C U11G C12U C13U — higher, 1.37
- U7G U8C G9U U10G U11G C13G — lower, 1.17
- U7G U8C G9U U10G U11G C13U — higher, 1.36
- U7G U8C G9U U10G U11G C13A — higher, 1.22
- U7G U8C G9U U10A C12A C13G — lower, 1.17
- U7G U8C G9U U10A C12A C13A — the same, 1.18
- U7G U8C G9U U10A C12A C13U — higher, 1.24
- U7G U8C G9U U10G C12G C13G — higher, 1.23
- U7G U8C G9U U10G C12G C13U — higher, 1.23
- U7G U8C G9U U10G C12G C13A — higher, 1.28
- U7G U8C G9U U10A U11C C12U C13A — higher, 1.48
- U7G U8C G9U U10A U11C C12U C13G — higher, 1.25
